{"source": "patent US20240159744A1", "about": "“COLON CANCER DIAGNOSIS OR DETECTION COMPOSITION FOR PREDICTING RESPONSE TO DRUG, AND COMPOSITION FOR PREVENTING OR TREATING COLON CANCER” (priority 2020, published 2024)", "tested_on": "HCT-15 tumor-bearing mice", "assay": "In-vivo and ex-vivo fluorescence imaging of EGF-Cy5.5, C-probe, EGF-probe", "description": "The biodistribution of the EGF-probe intravenously administered to mice having HCT-15, HT29, Lovo or HCT-8 tumors was evaluated. First of all, 6-week-old Balb/c-nude mice (Nara-Biotec, Gyeonggi-do, Korea) were prepared and each cell was subcutaneously inoculated into the nude mice at the right flank at a concentration of 2×10^6 cells/mouse to generate tumors. […] At 24 hours after the administration of the EGF-probe, the mouse was imaged using an IVIS fluorescence imaging system. […] IVIS fluorescence imaging was conducted at 24 hours after the administration. Major organs and tumors were obtained and imaged with an IVIS imaging system. The fluorescence intensity of the organs and tumors was analyzed using the Living Image 2.50 software. […] The tumor tissue sections were counter-stained with DAPI and visualized with a confocal microscope.", "data": [{"molecule": "EGF-Cy5.5 (conjugate, UniProt P01133 23-1207, looked up, Pro-epidermal growth factor Cy5.5 dye label) Pro-epidermal growth factor: PQHWSCPEGTLAGNGNSTCVGPAPFLIFSHGNSIFRIDTEGTNYEQLVVDAGVSVIMDFHYNEKRIYWVDLERQLLQRVFLNGSRQERVCNIEKNVSGMAINWINEEVIWSNQQEGIITVTDMKGNNSHILLSALKYPANVAVDPVERFIFWSSEVAGSLYRADLDGVGVKALLETSEKITAVSLDVLDKRLFWIQYNREGSNSLICSCDYDGGSVHISKHPTQHNLFAMSLFGDRIFYSTWKMKTIWIANKHTGKDMVRINLHSSFVPLGELKVVHPLAQPKAEDDTWEPEQKLCKLRKGNCSSTVCGQDLQSHLCMCAEGYALSRDRKYCEDVNECAFWNHGCTLGCKNTPGSYYCTCPVGFVLLPDGKRCHQLVSCPRNVSECSHDCVLTSEGPLCFCPEGSVLERDGKTCSGCSSPDNGGCSQLCVPLSPVSWECDCFPGYDLQLDEKSCAASGPQPFLLFANSQDIRHMHFDGTDYGTLLSQQMGMVYALDHDPVENKIYFAHTALKWIERANMDGSQRERLIEEGVDVPEGLAVDWIGRRFYWTDRGKSLIGRSDLNGKRSKIITKENISQPRGIAVHPMAKRLFWTDTGINPRIESSSLQGLGRLVIASSDLIWPSGITIDFLTDKLYWCDAKQSVIEMANLDGSKRRRLTQNDVGHPFAVAVFEDYVWFSDWAMPSVMRVNKRTGKDRVRLQGSMLKPSSLVVVHPLAKPGADPCLYQNGGCEHICKKRLGTAWCSCREGFMKASDGKTCLALDGHQLLAGGEVDLKNQVTPLDILSKTRVSEDNITESQHMLVAEIMVSDQDDCAPVGCSMYARCISEGEDATCQCLKGFAGDGKLCSDIDECEMGVPVCPPASSKCINTEGGYVCRCSEGYQGDGIHCLDIDECQLGEHSCGENASCTNTEGGYTCMCAGRLSEPGLICPDSTPPPHLREDDHHYSVRNSDSECPLSHDGYCLHDGVCMYIEALDKYACNCVVGYIGERCQYRDLKWWELRHAGHGQQQKVIVVAVCVVVLVMLLLLSLWGAHYYRTQKLLSKNPKNPYEESSRDVRSRRPADTEDGMSSCPQPWFVVIKEHQDLKNGGQPVAGEDGQAADGSMQPTSWRQEPQLCGMGTEQGCWIPVSSDKGSCPQVMERSFHMPSYGTQTLEGGVEKPHSLLSANPLWQQRALDPPHQMELTQ", "values": [{"measurement": "in-vivo fluorescence imaging (tumor and background signals)", "setting": "5 mg/kg intravenous, 24 hours, IVIS", "result": "strong fluorescence signal at the tumor site but nonspecific background signals were observed throughout the body"}, {"measurement": "fluorescence of tumor tissue sections", "setting": "cryosections, confocal", "result": "observed clearly"}]}]}
